Laboratory results: patent US20210070829A1 (ZHEJIANG DOER BIOLOGICS, published 2021)

What was measured:
Assay in all cases: cell-based or functional assay
human GLP-1 receptor = human GLP-1 receptor (human, UniProt P43220 24-463)
Glucagon receptor = molecular target: Glucagon receptor
[1] = molecular target: FGFR/β-Klotho receptor complex

B1: C227 L12F5L14M4 (Fc fusion)
chain: HSQGTFTSDYSKYLDSQAAQDFVQWLMNTGPSSGAPPSGGGGAGGGGAGGGGAAERKCCVECPPCPAPPVAGPSVFLFPPKPKDTLMISRTPEVTCVVVDVSHEDPEVQFNWYVDGVEVHNAKTKPREEQFNSTFRVVSVLTVVHQDWLNGKEYKCKVSNKGLPSSIEKTISKTKGQPREPQVYTLPPSREEMTKNQVSLTCLVKGFYPSDIAVEWESNGQPENNYKTTPPMLDSDGSFFLYSKLTVDKSRWQQGNVFSCSVMHEALHNHYTQKSLSLSPGGGGGAGGGGAGGGGASHPIPDSSPLLQFGGQVRQRYLYTDDAQQTEAHLEIREDGTVGGAADQSPESLLQLKALKPGVIQILGVKTSRFLCQRPDGALYGSLHFDPEACSFRERLLEDGYNVYQSEAHGLPLHCPGNKSPHRDPAPRGPCRFLPLPGLPPALPEPPGILAPQPPDVGSSDPLAMVGGSQGRSPSYES
GLP-1R agonist activity EC50 (luciferase reporter) (human GLP-1 receptor): 1.55 nM
GCGR agonist activity EC50 (luciferase reporter) (Glucagon receptor): 1.38 nM
FGF21 activity EC50 (luciferase reporter) [1]: 0.71 nM

B2: C495 L9F10L9M1 (Fc fusion)
chain: HSQGTFTSDYSKYLDEQAAQDFVQWLMNGGPSSGAPPPSGGGGSGGGGSGGGGSESKYGPPCPPCPAPEAAGGPSVFLFPPKPKDTLMISRTPEVTCVVVDVSQEDPEVQFNWYVDGVEVHNAKTKPREEQFASTYRVVSVLTVLHQDWLNGKEYKCKVSNKGLPSSIEKTISKAKGQPREPQVYTLPPSQEEMTKNQVSLTCLVKGFYPSDIAVEWESNGQPENNYKTTPPVLDSDGSFFLYSRLTVDKSRWQEGNVFSCSVMHEALHNHYTQKSLSLSLGGGGGSGGGGSGGGGSHPIPDSSPLLQFGGQVRQRYLYTDDAQQTEAHLEIREDGTVGGAADQSPESLLQLKALKPGVIQILGVKTSRFLCQRPDGALYGSLHFDPEACSFRERLLEDGYNVYQSEAHGLPLHLPGNKSPHRDPAPRGPARFLPLPGLPPALPEPPGILAPQPPDVGSSDPLSMVGGSQGRSPSYES
GLP-1R agonist activity EC50 (luciferase reporter) (human GLP-1 receptor): 1.21 nM
GCGR agonist activity EC50 (luciferase reporter) (Glucagon receptor): 1.43 nM
FGF21 activity EC50 (luciferase reporter) [1]: 0.84 nM

B3: C225 L10F10L14M2 (Fc fusion)
chain: HSQGTFTSDYSKYLDERAAQDFVQWLMNTGPSSGAPPPSGGGGAGGGGAGGGGAESKYGPPCPPCPAPEAAGGPSVFLFPPKPKDTLMISRTPEVTCVVVDVSQEDPEVQFNWYVDGVEVHNAKTKPREEQFASTYRVVSVLTVLHQDWLNGKEYKCKVSNKGLPSSIEKTISKAKGQPREPQVYTLPPSQEEMTKNQVSLTCLVKGFYPSDIAVEWESNGQPENNYKTTPPVLDSDGSFFLYSRLTVDKSRWQEGNVFSCSVMHEALHNHYTQKSLSLSLGGGGGAGGGGAGGGGASHPIPDSSPLLQFGGQVRQRYLYTDDAQQTEAHLEIREDGTVGGAADQSPESLLQLKALKPGVIQILGVKTSRFLCQRPDGALYGSLHFDPEACSFRERLLEDGYNVYQSEAHGLPLHCPGNKSPHRDPAPRGPCRFLPLPGLPPALPEPPGILAPQPPDVGSSDPLSMVGGSQGRSPSYES
GLP-1R agonist activity EC50 (luciferase reporter) (human GLP-1 receptor): 1.42 nM
GCGR agonist activity EC50 (luciferase reporter) (Glucagon receptor): 1.17 nM
FGF21 activity EC50 (luciferase reporter) [1]: 0.85 nM

B4: C240 L13F10L9M2 (Fc fusion)
chain: HSQGTFTSDYSKYLDERAAQDFVQWLMNGGPSSGAPPPSGGGGSGGGGSGGGGSAESKYGPPCPPCPAPEAAGGPSVFLFPPKPKDTLMISRTPEVTCVVVDVSQEDPEVQFNWYVDGVEVHNAKTKPREEQFASTYRVVSVLTVLHQDWLNGKEYKCKVSNKGLPSSIEKTISKAKGQPREPQVYTLPPSQEEMTKNQVSLTCLVKGFYPSDIAVEWESNGQPENNYKTTPPVLDSDGSFFLYSRLTVDKSRWQEGNVFSCSVMHEALHNHYTQKSLSLSLGGGGGSGGGGSGGGGSHPIPDSSPLLQFGGQVRQRYLYTDDAQQTEAHLEIREDGTVGGAADQSPESLLQLKALKPGVIQILGVKTSRFLCQRPDGALYGSLHFDPEACSFRERLLEDGYNVYQSEAHGLPLHCPGNKSPHRDPAPRGPCRFLPLPGLPPALPEPPGILAPQPPDVGSSDPLSMVGGSQGRSPSYES
GLP-1R agonist activity EC50 (luciferase reporter) (human GLP-1 receptor): 1.21 nM
GCGR agonist activity EC50 (luciferase reporter) (Glucagon receptor): 1.25 nM
FGF21 activity EC50 (luciferase reporter) [1]: 0.89 nM

B5: C382 L13F10L9M1 (Fc fusion)
chain: HSQGTFTSDYSKYLDSQAAQDFVQWLMNGGPSSGAPPPSGGGGSGGGGSGGGGSAESKYGPPCPPCPAPEAAGGPSVFLFPPKPKDTLMISRTPEVTCVVVDVSQEDPEVQFNWYVDGVEVHNAKTKPREEQFASTYRVVSVLTVLHQDWLNGKEYKCKVSNKGLPSSIEKTISKAKGQPREPQVYTLPPSQEEMTKNQVSLTCLVKGFYPSDIAVEWESNGQPENNYKTTPPVLDSDGSFFLYSRLTVDKSRWQEGNVFSCSVMHEALHNHYTQKSLSLSLGGGGGSGGGGSGGGGSHPIPDSSPLLQFGGQVRQRYLYTDDAQQTEAHLEIREDGTVGGAADQSPESLLQLKALKPGVIQILGVKTSRFLCQRPDGALYGSLHFDPEACSFRERLLEDGYNVYQSEAHGLPLHLPGNKSPHRDPAPRGPARFLPLPGLPPALPEPPGILAPQPPDVGSSDPLSMVGGSQGRSPSYES
GLP-1R agonist activity EC50 (luciferase reporter) (human GLP-1 receptor): 1.13 nM
GCGR agonist activity EC50 (luciferase reporter) (Glucagon receptor): 1.27 nM
FGF21 activity EC50 (luciferase reporter) [1]: 0.76 nM

B6: C462 L13F10L9M4 (Fc fusion)
chain: HSQGTFTSDYSKYLDEEAAQDFVQWLMNGGPSSGAPPPSGGGGSGGGGSGGGGSAESKYGPPCPPCPAPEAAGGPSVFLFPPKPKDTLMISRTPEVTCVVVDVSQEDPEVQFNWYVDGVEVHNAKTKPREEQFASTYRVVSVLTVLHQDWLNGKEYKCKVSNKGLPSSIEKTISKAKGQPREPQVYTLPPSQEEMTKNQVSLTCLVKGFYPSDIAVEWESNGQPENNYKTTPPVLDSDGSFFLYSRLTVDKSRWQEGNVFSCSVMHEALHNHYTQKSLSLSLGGGGGSGGGGSGGGGSHPIPDSSPLLQFGGQVRQRYLYTDDAQQTEAHLEIREDGTVGGAADQSPESLLQLKALKPGVIQILGVKTSRFLCQRPDGALYGSLHFDPEACSFRERLLEDGYNVYQSEAHGLPLHCPGNKSPHRDPAPRGPCRFLPLPGLPPALPEPPGILAPQPPDVGSSDPLAMVGGSQGRSPSYES
GLP-1R agonist activity EC50 (luciferase reporter) (human GLP-1 receptor): 1.11 nM
GCGR agonist activity EC50 (luciferase reporter) (Glucagon receptor): 1.23 nM
FGF21 activity EC50 (luciferase reporter) [1]: 1.33 nM

B7: C462 L10F5L10M3 (Fc fusion)
chain: HSQGTFTSDYSKYLDEEAAQDFVQWLMNGGPSSGAPPPSGGGGAGGGGAGGGGAERKCCVECPPCPAPPVAGPSVFLFPPKPKDTLMISRTPEVTCVVVDVSHEDPEVQFNWYVDGVEVHNAKTKPREEQFNSTFRVVSVLTVVHQDWLNGKEYKCKVSNKGLPSSIEKTISKTKGQPREPQVYTLPPSREEMTKNQVSLTCLVKGFYPSDIAVEWESNGQPENNYKTTPPMLDSDGSFFLYSKLTVDKSRWQQGNVFSCSVMHEALHNHYTQKSLSLSPGGGGGAGGGGAGGGGADSSPLLQFGGQVRQRYLYTDDAQQTEAHLEIREDGTVGGAADQSPESLLQLKALKPGVIQILGVKTSRFLCQRPDGALYGSLHFDPEACSFRELLLEDGYNVYQSEAHGLPLHCPGNKSPHRDPAPRGPCRFLPLPGLPPALPEPPGILAPQPPDVGSSDPLAMVGPSQGRSPSYAS
GLP-1R agonist activity EC50 (luciferase reporter) (human GLP-1 receptor): 1.23 nM
GCGR agonist activity EC50 (luciferase reporter) (Glucagon receptor): 1.22 nM
FGF21 activity EC50 (luciferase reporter) [1]: 1.37 nM
